# Experimental data from US20060286117A1, “Neuronally expressed stem cell factor modulates angiogenesis and neural stem cell migration to areas of brain injury” (priority 2003, published 2006).
# “Also recorded” adds a separate entry of the source.
# B1: SCF: Stem cell factor protein (R&D Systems), ligand of the c-Kit receptor (protein)
# chain: KEICGNPVTDNVKDITKLVANLPNDYMITLNYVAGMDVLPSHCWLRDMVIQLSLSLTTLLDKFSNISEGLSNYSIIDKLGKIVDDLVLCMEENAPKNIKESPKRPETRSFTPEEFFSIFNRSIDAFKDFMVASDTSDCVLSSTLGPEKDSRVSVTKPFMLPPVA
# What was measured:
# SVZ stem cells = assay: In vivo SVZ cell tracking by ventricular DiI or GFP adenovirus before SCF injection; set-up: species or system mouse; settings: seven days after SCF injection
# Description: For labeling of neural progenitors in vivo, BrdU (Roche) was administrated intraperitoneally twice a day, at 8-hour intervals, for 14 days (50 mg/kg body weight). Twenty hour from the last BrdU injection, several animals were killed and their brains were sectioned for BrdU immunostaining. Intracerebral injections were administered to the remaining animals. Stereotaxic surgery was performed as described in the “freeze” injury, and the injections were given at the position of 1 mm anterior to the bregma, 1.5 mm lateral to the midline, and 2.5 mm ventral to the dura. Mice received a suspension of rmSCF (3 μg in 3 μl of PBS; R&D systems) or PBS through a Hamilton syringe. Each injection took 15 min. Seven days from the intracranial injection, the animals were killed and the brains were processed for BrdU immunohistochemical analysis. For ventricular injection of DiI (1,1′-dioctadecyl-6,6′-di(4-sulfophenyl)-3,3,3′,3′-tetrametylindocarbocyanine; Molecular Probes) or adenovirus expressing GFP, 2 μl of 0.2% DiI in DMSO or 2 μl of replication incompetent adenovirus (10^8 plaque-forming units per μl) (He, T. C. et al. 1998 PNAS USA 95:2509-2514) was injected 0.5 mm posterior and 0.7 mm lateral to bregma, and 2 mm below the dura matter into the lateral ventricle. […] Seven days after SCF injection, the brains were sectioned and analyzed for DiI or GFP distributions.
# bMVEC-B cells = assay: bMVEC-B tube formation on matrigel (Example 3); type: cell-based; settings: vs SCF-absent control
# From the text: Endothelial cell tube formation on extracellular matrix (ECM) is a commonly used in vitro model of EC differentiation and angiogenesis. We examined the SCF effects on the bMVEC-B cell tube formation.
# SCID mice = assay: In vivo angiogenesis assay, subcutaneous Matrigel plugs with SCF or β-FGF; set-up: species or system mouse; settings: subcutaneous Matrigel in adult SCID mice, fourteen days after injection
# Description: Confluent-grown ECs were treated with 50 ng/ml of SCF for 5, 10, 15, and 30 min after 24 hr of serum starvation. The ECs were collected with RIPA lysis buffer (Upstate, Charlottesville, Va.) containing 50 mM NaF, 1 mM Na3VO4, […], and Protease Inhibitor Cocktail (Roche). The antibodies were purchased from Cell Signaling Technology, Inc. (Beverly, Mass.) or as mentioned otherwise. All the primary antibodies were used in a 1:1000 dilution except for the anti-SCF antibody, which was used in a 1:2000 dilution. The primary antibodies were anti-phospho-c-Kit, anti-phospho-MEK1/2 and anti-MEK1/2, anti-phospho-p44/42 MAPK and anti-p44/42 MAPK, anti-phospho-SAPK/JNK and anti-SAPK/JNK, anti-phospho-p38 MAPK and anti-p38 MAPK, anti-phospho-Akt and anti-Akt, anti-phospho-mTOR and anti-mTOR, anti-phospho-4E-BP1 and anti-4E-BP1, anti-SCF and anti-VEGF (Chemicon, Temecula, Calif.), and anti-β-tubulin (Sigma). Re-blotting was done after membranes were stripped by re-blot kit (Chemicon). Tie2 detection in Matrigel plugs from the in vivo Matrigel assay was carried out by immunoprecipitation and immunoblotting. The gel plugs were carefully separated from muscle and skin and homogenized with RIPA lysis buffer. The resulting total tissue lysates ([…]) were immunoprecipitated with Tie2 antibody (Santa Cruz Biotechnology, Inc., Santa Cruz, Calif.) and then analyzed by immunoblot with Tie2 antibody (Zadeh et al. 2004 Am J Pathol 162:467-476).
# All adult mice (6-8 weeks of age) were from NCI-Fredrick, and the animal experiments were conducted on an animal experimentation protocol approved by the NCI's animal protection committee (the “ACUC”). […]
# glioma cells = assay: Glioma cell proliferation in vitro with SCF; type: cell-based, human; settings: even high concentrations of SCF
molecule,measurement,setting,value
B1,DiI-labelled cells near the SCF injection site,SVZ stem cells; ventricular DiI,greater number of DiI positive cells; also recorded: significant numbers of DiI labelled cells
same,GFP-positive cells in the SCF-injected cortex,SVZ stem cells; ventricular GFP adenovirus,a large number of GFP-positive cells had migrated
same,bMVEC-B tube formation on matrigel,bMVEC-B cells,enhanced bMVEC-B cell tube formation; also recorded: at much earlier time point and more completely
same,Tie2 protein in Matrigel plug,SCID mice,high Tie2 expression
same,"angiogenesis in Matrigel plug (H&E, vWF-positive vessels)",SCID mice,high density of blood vessels; also recorded: induced substantial angiogenesis
same,glioma cell proliferation,glioma cells,failed to induce proliferation
